Experiment in all cases: SPR
Assay [1] deals with NYE 3Y peptide on HLA-A*02:01.
Assay [2] concerns the target NYE 4E5E8E peptide on HLA-A*02:01.
The target in assay [3] is NYE 6T peptide on HLA-A*02:01.
The target of assay [4] is NYE 9V peptide (NYE-ESO157-165, heteroclitic 9V variant) on HLA-A*02:01.
Assay [5] concerns the target NYE 4D peptide on HLA-A*02:01.
For assay [6], the target named is NYE 3A peptide on HLA-A*02:01.
For assay [7], the target named is NYE 6V peptide on HLA-A*02:01.

pKd: −log10 of the molar value.

For orientation: pKd means −log10 of the Kd, conventionally taken in molar units. Read a low pKd as a high Kd.

On to Soluble 1G4 TCR, for which the pKd was 4.26 in assay [1]; 4.74 in assay [2]; 3.79 in assay [3]; 5.10 in assay [4]; 3.86 in assay [5]; 5.15 in assay [6]. Further, the pKd in assay [7] is 4.77.

The values are drawn from publication doi:10.1101/2022.05.05.490751.
